# According to paper PMC314469, “Protein Interaction Networks by Proteome Peptide Scanning” (PLoS Biology, 2004):
# T1: Myo5 SH3 (MYO5_YEAST), Q04439
# T1 chain: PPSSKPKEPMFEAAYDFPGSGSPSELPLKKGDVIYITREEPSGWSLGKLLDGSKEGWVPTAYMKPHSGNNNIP
# Biological target: T1, Myo5 SH3 (MYO5_YEAST), Q04439
# Test: SPOT array
row,"normalised SPOT signal, Boehringer light units (BLU); mean over the file's lines of this peptide",Binder
1,132,YLNSLSEPLVPLAL [YOR134W 141-154]
2,11600,VPLPFGIPPFPMFP [YKL059C 406-419]
3,125,YEADYVIPVLPGSH [YNL262W 2031-2044]
4,275,AADWYEVPKVPLSA [YLR223C 813-826]
5,172,AELLLGQPMFPGES [YMR139W 231-244]
6,140,VPGGMSIPGAPQGA [YPL169C 514-527]
7,84.9,AAMNLETPSNPDSA [YPL217C 1040-1053]
8,166,AARILANPDHPFSR [YPR122W 171-184]
9,215,VPIIFEIPFNPIYK [YKL205W 1001-1014]
10,172,YLPHMSRPLGPDEV [YMR131C 97-110]
11,122,YENSHSLPLDPQSP [YLR416C 105-118]
12,1570,VPPNFNAPPNPMAF [YNL118C 392-405]
13,144,YWKLFFQPEYPVRM [YLR128W 190-203]
14,37.9,AADSHAIPVDPPSY [YKR021W 673-686]
15,169,YLTEFSRPIPPTPS [YPL009C 61-74]
16,111,YEVTFDGPNDPLHP [YLL028W 124-137]
17,157,YPEKFQKPYNPLAM [YJR059W 450-463]

# Further lines, the binder ahead of its results:
row,Binder,"normalised SPOT signal, Boehringer light units (BLU); mean over the file's lines of this peptide"
1,VPNRWATPLDPSIL [YAL015C 71-84],126
2,AAVRLDQPILPQND [YBR018C 82-95],105
3,YLLELPDPLIPNDV [YFL047W 564-577],163
4,YPAKLRIPETPVKK [YJL187C 187-200],220
5,YFKELPPPSDPSSI [YDL108W 289-302],165
6,AELFLGIPIFPGAS [YJL141C 561-574],36.7
7,YASQYSRPDGPILL [YGR088W 39-52],114
8,AELMLRIPYLPGQN [YDL108W 196-209],236
9,YEGRFWNPENPYKF [YEL011W 167-180],163
10,WLLPYSLPMHPGRW [YHR072W 218-231],706
11,YLNNLAEPLIPLSL [YDR389W 216-229],222
12,AELFLRRPIFPGRD [YBL016W 214-227],216
13,AAPKHAPPPVPNET [YDL019C 770-783],111000
14,AANAHISPPVPGPA [YHL002W 373-386],28.6
15,YEQTMKSPKYPSTY [YDR314C 535-548],138
16,AEAYLVTPEEPAKN [YDL129W 9-22],39.6
17,WLSKLVLPPPPVSI [YHR021W-A 81-94],4130
18,AEFDLTDPEVPSFY [YDR362C 446-459],166
19,YFKNMSNPKIPATK [YIL125W 74-87],128
20,VPGEHFAPMGPNGQ [YHR098C 250-263],64.7
21,AAYDHAEPVQPEDA [YGL009C 504-517],146
22,VPSAFTAPPVPTKK [YDR517W 312-325],358
23,AEVYYGPPTDPRKQ [YDR001C 32-45],83.5
24,AAMMLGNPMAPAVQ [YER109C 209-222],257
25,YEKALHFPAGPKST [YFL042C 472-485],147
